Experimental data published in US20240043506A1 (GARVAN INSTITUTE OF MEDICAL RESEARCH, published 2024).

Target: SARS-CoV-2 S protein RBD (residues 319-541 of the S protein), soluble, with C-terminal Avitag and His tag (SARS-CoV-2, UniProt P0DTC2 319-541)

Binder	Kd [nM]
O4C12 (antibody, V domains shown) VH: EVQLLESGGGLVQPGGSLRLSCAASGFRISDEDMGWVRQAPGKGLEWVSYIDNAGASTYYADSVKGRFTISRDNSKNTLYLQMNSLRAEDTAVYYCAKQINQGEGFDYWGQGTLVTVSS VL: DIQMTQSPSSLSASVGDRVTITCRASQSISSYLNWYQQKPGKAPKLLIYYASNLQSGVPSRFSGSGSGTDFTLTISSLQPEDFATYYCQQGLGMPITFGQGTKVEIK	23
O4G1 (antibody, V domains shown) VH: EVQLLESGGGLVQPGGSLRLSCAASGFRFDYEDMGWVRQAPGKGLEWVSSIDSHGASTYYADSVKGRFTISRDNSKNTLYLQMNSLRAEDTAVYYCAKYSHSVSYGPFDYWGQGTLVTVSS VL: DIQMTQSPSSLSASVGDRVTITCRASQYIYDDLNWYQQKPGKAPKLLIYSASSLQSGVPSRFSGSGSGTDFTLTISSLQPEDFATYYCQQTNTYPQTFGQGTKVEIK	19
